Laboratory results: patent US5817516, “Methods for proliferating and differentiating B cells with high density membrane CD40 ligand” (Boehringer Ingelheim Pharmaceuticals, Inc., dated 1998)

Target: CD40 on human B cells (human, UniProt P25942)
Test: cell-based or functional assay

B1: high density, membrane bound mouse CD40 ligand (ligand)
chain: MIETYSQPSPRSVATGLPASMKIFMYLLTVFLITQMIGSVLFAVYLHRRLDKVEEEVNLHEDFVFIKKLKRCNKGEGSLSLLNCEEMRRQFEDLVKDITLNKEEKKENSFEMQRGDEDPQIAAHVVSEANSNAASVLQWAKKGYYTMKSNLVMLENGKQLTVKREGLYYVYTQVTFCSNREPSSQRPFIVGLWLKPSSGSERILLKAANTHSSSQLCEQQSVHLGGVFELQAGASVFVNVTEASQVIHRVGFSSFGLLKL
expansion of human B cells grown with hdmb CD40 ligand as described for the mouse cells: ~100 fold
